Source: paper PMC4769559 (BMC Veterinary Research, 2016)

B1: 6 × His-SUMO-VHH6 fusion protein (VHH)
VHH: QVQLVESGGGSVQAGGSLRLSCTASGFTFDDSDMVWYRQAPGNECEVVSYITSDGTTYHADSVKGRFTISQDNAKSTVYLQMNSLKPEDTAVYYCAADLVLESPSCEWSQGTLVTVSS
B2: VHH4 fused to the Gal4 activation domain (pAD-VHH, pGADT7-Rec) (VHH)
VHH: QVQLVESGGGSVQAGGPLRLSCAVSGYSYSSVCMAWFRQAPGKEREAVAGIYTGGGNKYYADSVKGRFTISQDNTKNTLYLQMNSLKPEDTAMYYCAADLTVAACVPGRPQLTEEYNIWGQGTLVTVSS
B3: VHH6 fused to the Gal4 activation domain (pAD-VHH, pGADT7-Rec) (VHH)
VHH: B1 VHH
B4: VHH1 fused to the Gal4 activation domain (pAD-VHH, pGADT7-Rec) (VHH)
VHH: QVQLVESGGGSVQAGGSLTLSCAASGATDSSSCMGWFRQAPGKEREGVANIDSDGNTNYAESVMGRFTISQDNAKNTLYLQMNTLKPEDTAMYRCAADPGGSWCVFLLARENALDAWGQGTLVTVSS
B5: VHH2 fused to the Gal4 activation domain (pAD-VHH, pGADT7-Rec) (VHH)
VHH: QVQLVESGGGSVQAGGSLKLSCAPPAGYIFSSCAMGWYRQAPGKEHELVSSIAINGTTVYADFVKGRFTIFQDNTKPTLYLQMNNLKTEDTAVYYCAAECTFSDHPYWGQGTLVTVSS
B6: VHH5 fused to the Gal4 activation domain (pAD-VHH, pGADT7-Rec) (VHH)
VHH: QVQLVESGGGLVQPGGSLKLSCAASGFTFSTNAMSWFRPAPGKERKWVSAIDAGGGNTYYDDSMKGRFTISKDNAKNTLYLQLNSLKSEDTAMYYCAKDPATVPTNRGQGTLVTVSS
B7: VHH3 fused to the Gal4 activation domain (pAD-VHH, pGADT7-Rec) (VHH)
VHH: EVQLVESGGGSVQAGGSLRLSCTASGYTRCMGWFRQAPGKEREGVAIVVTGSPYYTDSVKDRFTISLDNAKNTVYLQMNSLKPEDTATYYCAADRSILGCRLFRLYEANYRGQGTLVTVSS
B8: VHH7 fused to the Gal4 activation domain (pAD-VHH, pGADT7-Rec) (VHH)
VHH: QVQLVESGGGLVQPGGSLRLSCAASGFAFSIYAMSWVRQAPGKGLEWVSAINSGGGSEYYADSVKGRFTISRDNAKNTLYLQLNSLKTEDTAMYYCAKSTSDCSYSDPWCYALADFGYWGQGTQVTVSS

The binders below were run against cell derived HN protein (pCAGGS-HN transfected 293 T cells) (Newcastle disease virus, strain not …, UniProt O90340) (assay: pull-down). Details: one partner purified.
B1: binds.

The binders below were run against truncate haemagglutinin-neuraminidase (HN) 49–577 aa of NDV La Sota fused to the yeast GAL4 DNA-BD (Newcastle disease virus, La Sota, UniProt O90340, strain) (assay: two-hybrid). Details: partners not purified.
B2: binds.
B3: binds.
B4: binds.
B5: binds.
B6: binds.
B7: binds.
B8: binds.

The binders below were run against NDV HN glycoprotein in LaSota-infected DF-1 cells (Newcastle disease virus, La Sota, UniProt O90340, strain) (assay: immunostaining of cells or tissue). Details: one partner purified.
B1: binds.
